B1: clone 01a033 (antibody)
heavy: QVQLKQSGPELVKPGASVKISCKASGYSFTGYYMHWVKQSPEKSLEWIGEINPSTGDTTYNQKFKAKATLTVDKSSSTAYMQLKSLTSEDSAVYYCAREKRDDGVFAYWGQGTLVTVSSAKTTAPSVYPLAPVCGDTTGSSVTLGCLVKGYFPEPVTLTWNSGSLSSGVHTFPAVLQSDLYTLSSSVTVTSSTWPSQSITCNVAHPASSTKVDKKIEPRGPTIKPCPPCKCPAPNLLGGPSVFIFPPKIKDVLMISLSPIVTCVVVDVSEDDPDVQISWFVNNVEVHTAQTQTHREDYNSTLRVVSALPIQHQDWMSGKEFKCKVNNKDLPAPIERTISKPKGSVRAPQVYVLPPPEEEMTKKQVTLTCMVTDFMPEDIYVEWTNNGKTELNYKNTEPVLDSDGSYFMYSKLRVEKKNWVERNSYSCSVVHEGLHNHHTTKSFSRTPGK
light: DIVMSQSPKSMSMSVGERVALSCKASENVGTYVSWYQQKPEQSPKLLIYGASNRYTGVPDRFTGSGSATDFTLTISSVQAEDLADYYCGQSYSYPLTFGAGTKLELKRADAAPTVSIFPPSSEQLTSGGASVVCFLNNFYPKDINVKWKIDGSERQNGVLNSWTDQDSKDSTYSMSSTLTLTKDEYERHNSYTCEATHKTSTSPIVKSFNRNEC
B2: GPC1 ADC (conjugate)
heavy: B1 heavy
light: B1 light

Assays:
LLC-control-7 cells = assay: In vitro ADC assay, LLC-control-7 cells; assay type: cell-based; details: does not express mouse GPC-1, 72 hours
Protocol: An mGPC1 expression vector (pcDNA3.1-mGPC1) and control vector (pcDNA3.1V5/His) were transfected using Lipofectamine® 2000 into LLC cell strain (mouse lung cancer cell strain). Cells subjected to gene transfer were selected by adding G418 to a medium, and the formed colony was picked up. The expression of mGPC1 was analyzed by FACS using anti-GPC1 antibody clone 01a033. LLC-mGPC1-16 cells were established as an mGPC1 stable expression strain, and LLC-control-7 was established as the control.
Preparation of a conjugate of mouse anti-glypican-1 mAb (01a033), mouse IgG2a (biolegend #400224) as a control, and mc-vc-PAB-MMAF was commissioned to MORADEC. An anticancer agent was conjugated to a cysteine residue via a cleavable linker. The DAR (drug-antibody ratio) was as follows. […]
RPMI1640+10% FBS+100 U/ml penicillin+100 μg/ml streptomycin was used as the medium. […] (3) After 72 hours of culturing, CellTiter-Glo™ Luminescence Cell Viability Assay reagent (Promega) was added and mixed at 100 μL/well. (4) Measurements were taken with a plate reader. […]
The IC50 values were calculated from the following equation (Hossain M M, Hosono-Fukao T, Tang R, Sugaya N, van Kuppevelt T H, Jenniskens G J, Kimata K, Rosen S D, Uchimura K (2010) Direct detection of HSulf-1 and HSulf-2 activities on extracellular heparan sulphate and their inhibition by PI-88. Glycobiology […]: 175-186.) […]

[1] = system: TE4, TE5, TE6, TE8, TE9, TE10, TE11, TE14, TE15, HeLa, ME180; assay: In vitro antitumor effect of unlabeled antibody (CellTiter-Glo); assay type: cell-based; details: 6 days
Protocol: 2000 cells were added to a 96-well plate at 90 μl. The cells were cultured overnight at 37° C. in a 5% CO2 incubator. The next day, 10 μl of an unlabeled primary antibody concentrated […] relative to the final concentration was added to each well, so that the total amount was 100 μl. The cells were cultured for 6 days at 37° C. in a 5% CO2 incubator. The cell viability was measured by using a CellTiter-Glo Luminescent Cell Viability Assay reagent to detect the amount of ATP.

ME180 cell strain = assay: In vivo efficacy test on GPC1 ADC using cervical cancer cell strain ME180 in SCID mice; set-up: species or system mouse
Protocol: Specifically, 1.0×10^6 cells of ME180 cell strain were subcutaneously grafted into female SCID mice. […] The tumor volume and body weight were measured on day 0, day 4, day 8, day 12, day 16, day 20, day 24, day 28, and day 32.
After subcutaneous tumorigenesis of ME180, (1) PBS, (2) control ADC at 10 mg/kg, and (3) GPC1-ADC at 10 mg/kg were administered once into the tail vein. The tumor was extracted after 24 hours. After deparaffinization of a section of a paraffin embedded tissue, the slice was dehydrated with alcohol. Immunohistochemical staining on Phospho-Histon H3 (Ser10) was performed by using an anti-Phospho-Histon H3 (Ser10) antibody (Cell Signaling Technology: #9701) and ChemMate Envision kit HRP 500T (Dako: K5007).

LK2 cells = assay: In vitro ADC assay, LK2 cells; assay type: cell-based, human; details: 144 hours; LK2 hardly express GPC1
Protocol: (§1) Preparation of a conjugate of mouse anti-Glypican-1 mAb (01a033), mouse IgG2a (biolegend #400224) as a control, and mc-vc-PAB-MMAF was commissioned to MORADEC. An anticancer agent was conjugated to a cysteine residue via a cleavable linker. The DAR (drug-antibody ratio) was as follows. GPC1-CL-MMAF DAR=3.8, mouse IgG2a-CL-MMAF DAR=4.1.
(§2) (1) The cells were seeded on Thermo Fisher Scientific's 96-well white plate (model no.: 136101) (90 μl cell suspension). RPMI1640+10% FBS+100 U/ml penicillin+100 μg/ml streptomycin was used as the medium. The cells were seeded in 60 wells, and 100 μL of medium was added to 36 wells, and cultured in a 5% CO2 incubator at 37° C. (2) The next day, 10 μL of ADC was added to the cells (total amount: 100 μL). (3) After 144 hours of culture, a CellTiter-Glo™ Luminescence Cell Viability Assay reagent (Promega) was added and mixed at 100 μL/well. (4) Measurements were taken with a plate reader. (5) Analysis was conducted with GraphPad Prism 6.
(§3) The IC50 values were calculated from the following equation (Hossain M M, Hosono-Fukao T, Tang R, Sugaya N, van Kuppevelt T H, Jenniskens G J, Kimata K, Rosen S D, Uchimura K (2010) Direct detection of HSulf-1 and HSulf-2 activities on extracellular heparan sulphate and their inhibition by PI-88. Glycobiology 20(2): 175-186.)
(§4) IC50=10^(Log [A][B]×(50−C)/(D−C)+Log [B]) […]

ME180 cells = assay: In vitro ADC assay, ME180 cells; assay type: cell-based; details: ME180, 144 hours
Protocol: as §1, §2, §3, §4

T3M4 cells = assay: In vitro ADC assay, T3M4 cells; assay type: cell-based, human; details: T3M4, 144 hours
Protocol: as §1, §2, §3, §4

[2] = Single dose safety test on GPC1 ADC in C57BL/6J mice
Protocol: A single dose (1 ml) of control PBS, control ADC (50 mg/kg), anti-GPC1 ADC (3 mg/kg), anti-GPC1 ADC (15 mg/kg), and anti-GPC1 ADC (50 mg/kg) was intraperitoneally administered on day 1 to a group of 4 male and 4 female C57BL/6J mice (8W). The mice were dissected after 7 days from administration.
*Blood collection (Blood cell count, biochemical test)

HeLa cells = assay: In vitro ADC assay, HeLa cells; assay type: cell-based; details: 144 hours
Protocol: as §1, §2, §3, §4

BxPC3 cells = assay: In vitro ADC assay, BxPC3 cells; assay type: cell-based, human; details: BxPC3, 144 hours
Protocol: as §1, §2, §3, §4

[3] = single ip dose, high dose administration group, not GPC1-ADC specific

| Molecule | effect of suppressing growth against LLC-control-7 (LLC-control-7 cells) | antitumor effect in vitro [1] | antitumor effect (tumor volume, tumor weight day 32) (ME180 cell strain; 1 mg/kg iv day 0, 4, 8, 12) | antitumor effect (tumor volume, tumor weight day 32) (ME180 cell strain; 3 mg/kg iv day 0, 4, 8, 12) | antitumor effect (tumor volume, tumor weight day 32) (ME180 cell strain; 10 mg/kg iv day 0, 4, 8, 12) | tumor volume (ME180 cell strain; 10 mg/kg iv day 0, 4, 8, 12) | change in the body weight (ME180 cell strain; any dosage tested (1, 3, 10 mg/kg)) | G2/M phase arrest in tumor tissue (Phospho-Histon H3 (Ser10) staining) (ME180 cell strain; single tail vein dose 10 mg/kg, tumor extracted after 24 hours) | antitumor effect against LK2 cells (LK2 cells) | effect of suppressing cell growth (ME180 cells) | effect of suppressing cell growth (T3M4 cells) | toxicity from the results of the hematological test ([2]; single ip dose) | anemia (hemoglobin) ([2]; single ip dose 50 mg/kg) | amylase ([2]; single ip dose 3, 15, 50 mg/kg) | platelet count ([2]; single ip dose 3, 15, 50 mg/kg) | change in the body weight ([2]; single ip dose, groups other than 50 mg/kg (3, 15 mg/kg), 7 days) | liver function (ALT) [2, 3] | white blood cells [2, 3] | effect of suppressing cell growth (HeLa cells) | effect of suppressing cell growth (BxPC3 cells) |
| --- | --- | --- | --- | --- | --- | --- | --- | --- | --- | --- | --- | --- | --- | --- | --- | --- | --- | --- | --- | --- |
| B1 | low effect of suppressing growth | not observed against any cell strain | – | – | – | – | – | – | – | – | – | – | – | – | – | – | – | – | – | – |
| B2 | – | – | slight antitumor effect | slight antitumor effect | significant antitumor effect | tumor volume was significantly reduced | significant change in the body weight was not observed | resulted in G2/M phase arrest | hardly exhibited | exhibits an effect of suppressing cell growth | exhibits an effect of suppressing cell growth | Significant toxicity due to ADC administration was not observed | Mild anemia | Specific abnormality was not observed | Abnormal platelet count specific to each group was not observed | Significant change in the body weight was not observed | An abnormality in the liver function was found | increase in the while blood cells was observed | exhibits an effect of suppressing cell growth | exhibits an effect of suppressing cell growth |
